Biological target: T1, INS/INSR complex (human, UniProt P06213 28-1382; P01308 25-110, limits assumed)
T1 construct: cells carrying INSR pre-exposed to human insulin (150 nM for CHO-K1 hINSR cells); also called R-L; INSR with insulin
Assay: ratio of the value for R to the value for R-L, Table 2

| KD ratios (R against R-L) | Binder |
| --- | --- |
| 1.4 | Ab037 (antibody, V domains shown) VH: EVQLLESGGGLVQPGGSLRLSCAASGFTFSSYEMNWVRQAPGKGLEWVSSISSSSRYADVANSVVGRFTISRDNSKNTLYLQMNSLRAEDTAVYYCARGEWLDHFDYWGQGTLVTVSS VL: QSVLTQPPSASGTPGQRVTISCSGSSSNIGNSAVNWYQQLPGTAPKLLIYDNNKRPSGVPDRFSGSKSGTSASLAISGLRSEDEADYYCQVWDSGTAVFGGGTKLTVLG |
| 1.5 | Ab053 (antibody, V domains shown) VH: not shown VL: QSALTQPRSVSESPGKTVTISCTGSGGSIGSNYVQWYQQRPGSAPTTVIFEDNRRPSGVPDRFSGSIHSSSNSASLTISGLKTEDEADYYCQSYVGTIVVFGGGTKVTVL |
| 1.1 | Ab062 (antibody, V domains shown) VH: QVQLQQWGAGLLKPSETLSLTCAVYGGSFSGYYWSWIRQPPGKGLEWIGEINHSGSTNYNPSLKSRVTISVDTSKNQFSLKLSSVTAADTAVYYCARGPSGWYIREFDYWGQGTLVTVSS VL: QSVLTQPPSVSGAPGQRVTISCTGSSSNIGAGYDVHWYQQLPGTAPKLLIYGNSNRPSGVPDRFSGSKSGTSASLAITGLQAEDEADYYCQSYDSSLSGSGVFGGGTKVTVL |
| 19.4 | Ab079 (antibody, V domains shown) VH: QMQLVQSGAEMKKPGASVKVSCKASGYSFSDYGITWVRQAPGQGPEWMGWISGYNGNTNYAQKFQDRVTMTTDTSTSTAYMELRSLKSDDTAVYFCARARGVWMFDNWGQGTLVTVSS VL: AIRMTQSPSTLSASVGDRVTITCRASQSISTWLAWYQQKPGKAPKLLIYTTSTLESGVPSRFSGSRSGTEFTLTISSLQPDDFATYYCQQYNSYPLTFGGGTKVEIK |
| 20.2 | Ab083 (antibody, V domains shown) VH: not shown VL: AIQLTQSPSSLSASVGDRVTISCRASQSITSYLNWYQQKPGKAPNLLIYAASSLQSGVPSRFSGSGSGTDFTLTIAGLQPEDFATYYCQQFDSYPFTFGGGTKLEIK |
| 103 | Ab001 (antibody, V domains shown) VH: EVQLLESGGGLVQPGGSLRLSCAASGFTFSSYEMNWVRQAPGKGLEWVSSISSSSSYIYYADSVKGRFTISRDNSKNTLYLQMNSLRAEDTAVYYCARVRWYKDSDAFDIWGQGTLVTVSS VL: not shown |
| 17.6 | Ab080 (antibody, V domains shown) VH: EVQLVESGGGVVQPGGSLRLSCAASGFTFDDYAMHWVRQAPGKGLEWVSLISWDGGSTYYADSVKGRFTISRDNSKNSLYLQMNSLRAEDTALYYCAKARGVVIIDYWGQGTLVTVSS VL: EIVLTQSPGTLSLSPGERATLSCRASQSLSSSFLAWYQQKPGQAPRLLIYGAGSRATGVPDRFSGSGYGTDFSLTISRLELEDFAVYYCQQYDRSQITFGQGTRLEIK |
